T1: mouse DLL4 (cell surface) (mouse, UniProt Q9JI71)
T1 chain: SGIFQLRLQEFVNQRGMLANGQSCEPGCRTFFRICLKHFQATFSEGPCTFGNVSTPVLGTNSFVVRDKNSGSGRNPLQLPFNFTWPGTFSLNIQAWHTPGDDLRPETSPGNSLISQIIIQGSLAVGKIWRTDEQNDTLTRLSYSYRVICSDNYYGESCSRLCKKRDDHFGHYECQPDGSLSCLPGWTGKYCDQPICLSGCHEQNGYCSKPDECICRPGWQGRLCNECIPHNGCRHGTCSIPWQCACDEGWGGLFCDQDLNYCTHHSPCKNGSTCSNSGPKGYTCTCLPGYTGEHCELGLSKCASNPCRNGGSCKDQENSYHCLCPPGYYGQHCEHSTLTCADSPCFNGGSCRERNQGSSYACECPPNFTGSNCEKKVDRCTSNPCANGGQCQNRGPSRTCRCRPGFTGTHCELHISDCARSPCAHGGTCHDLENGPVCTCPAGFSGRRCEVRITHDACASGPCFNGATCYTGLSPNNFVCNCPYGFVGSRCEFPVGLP

T2: mouse DLL4 ECD (mouse, UniProt Q9JI71)
T2 chain: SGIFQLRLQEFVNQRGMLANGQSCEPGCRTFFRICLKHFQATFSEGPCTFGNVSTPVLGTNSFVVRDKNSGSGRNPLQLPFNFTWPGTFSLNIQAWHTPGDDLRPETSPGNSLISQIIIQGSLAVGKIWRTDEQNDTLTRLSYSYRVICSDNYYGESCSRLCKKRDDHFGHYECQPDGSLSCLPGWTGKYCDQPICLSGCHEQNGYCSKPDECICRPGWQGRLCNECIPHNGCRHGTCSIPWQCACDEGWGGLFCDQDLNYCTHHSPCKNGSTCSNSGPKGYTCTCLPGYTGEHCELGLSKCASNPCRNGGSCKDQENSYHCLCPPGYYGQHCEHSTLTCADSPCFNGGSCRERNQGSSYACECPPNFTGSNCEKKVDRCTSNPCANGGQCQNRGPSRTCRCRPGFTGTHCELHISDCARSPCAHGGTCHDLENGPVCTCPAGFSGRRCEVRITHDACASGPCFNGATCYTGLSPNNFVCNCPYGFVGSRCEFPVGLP


Columns and labels:
human DLL4 ECD = human DLL4 ECD (human); test: competition ELISA
human DLL4 ECD (human), sequence (chain, as listed by the source): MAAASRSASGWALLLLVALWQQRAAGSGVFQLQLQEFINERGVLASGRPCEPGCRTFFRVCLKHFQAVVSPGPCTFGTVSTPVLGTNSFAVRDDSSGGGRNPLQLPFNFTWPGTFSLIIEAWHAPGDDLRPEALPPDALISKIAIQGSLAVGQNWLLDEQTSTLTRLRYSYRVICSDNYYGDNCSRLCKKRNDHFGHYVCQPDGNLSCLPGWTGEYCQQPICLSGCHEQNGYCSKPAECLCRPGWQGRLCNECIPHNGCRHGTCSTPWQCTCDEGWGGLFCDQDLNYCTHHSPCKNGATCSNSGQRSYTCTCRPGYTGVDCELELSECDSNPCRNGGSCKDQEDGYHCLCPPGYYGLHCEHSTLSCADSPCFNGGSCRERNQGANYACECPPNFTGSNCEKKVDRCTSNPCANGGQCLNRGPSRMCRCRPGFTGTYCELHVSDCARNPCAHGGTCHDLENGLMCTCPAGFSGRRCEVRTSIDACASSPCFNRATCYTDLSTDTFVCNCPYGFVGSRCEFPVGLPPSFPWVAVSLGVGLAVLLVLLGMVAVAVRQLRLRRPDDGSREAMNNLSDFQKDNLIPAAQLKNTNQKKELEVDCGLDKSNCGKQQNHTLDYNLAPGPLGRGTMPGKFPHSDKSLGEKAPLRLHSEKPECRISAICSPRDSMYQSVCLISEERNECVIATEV

[1] = molecular target: T1, mouse DLL4 (cell surface); test: FACS
[2] = molecular target: human DLL4 (cell surface) (human); test: FACS
human DLL4 (cell surface) (human), sequence (chain, as listed by the source): as above

mouse DLL4 ECD = molecular target: T2, mouse DLL4 ECD; test: SPR

Row | Binder | IC50 (human DLL4 ECD) | also measured
1 | h38H12.9 (antibody, V domains shown) VH: EVQLVESGGGVVQPGRSLRLSCAASGFTFSNYGMYWVRQAPGKGLEWVAFISHGGGITYYRDSVKGRFTISRDNSKNTLYLQMNSLRAEDTAVYYCAALNWELGIDYWGQGTMVTVSS VL: DIQMTQSPSSLSASVGDRVTITCRASEDIYSNLAWYQQKPGKAPKLLIYAANRLQDGVPSRFSGSGSGTDFTLTISSLQPEDFATYYCLQGSKFPLTFGQGTKLEIKR | 4.16 nM | 
2 | h38H12.6 (antibody, V domains shown) VH: EVQLVESGGGVVQPGRSLRLSCAASGFTFSNYGMYWIRQAPGKGLEWVAFISHGGGITYYRDSVKGRFTISRDNSKSTLYLQMNSLRAEDTAVYHCAALNWELGIDYWGQGTMVTVSS VL: DIQMTQSPSSLSASVGDRVTITCRASEDIYSNLAWYQKKPGKSPKLLIYAANRLQDGVPSRFSGSGSGTDYTLTISSLQPEDFATYFCLQGSKFPLTFGQGTKLEIKR | 27 nM | 
3 | h38H12.11 (antibody, V domains shown) VH: EVQLVESGGGVVQPGRSLRLSCAASGFTFSNYGMYWVRQAPGKGLEWVAFISHGGGITYYRDSVKGRFTISRDNSKNTLYLQMNSLRAEDTAVYYCAALNWELGIDYWGQGTMVTVSS VL: DIQMTQSPSSLSASVGDRVTITCRASEDIYSNLAWYQQKPGKAPKLLIYAANRLQDGVPSRFSGSGSGTDYTLTISSLQPEDFATYYCLQGSKFPLTFGQGTKLEIKR | 3.8 nM | 
4 | h38H12.10 (antibody, V domains shown) VH: EVQLVESGGGVVQPGRSLRLSCAASGFTFSNYGMYWVRQAPGKGLEWVAFISHGGGITYYRDSVKGRFTISRDNSKNTLYLQMNSLRAEDTAVYYCAALNWELGIDYWGQGTMVTVSS VL: DIQMTQSPSSLSASVGDRVTITCRASEDIYSNLAWYQKKPGKSPKLLIYAANRLQDGVPSRFSGSGSGTDYTLTISSLQPEDFATYFCLQGSKFPLTFGQGTKLEIKR | 3.9 nM | 
5 | h38H12.5 (antibody, V domains shown) VH: EVQLVESGGGVVQPGRSLRLSCAASGFTFSNYGMYWIRQAPGKGLEWVAFISHGGGITYYRDSVKGRFTISRDNSKSTLYLQMNSLRAEDTAVYHCAALNWELGIDYWGQGTMVTVSS VL: DIQMTQSPSSLSASVGDRVTITCRASEDIYSNLAWYQQKPGKAPKLLIYAANRLQDGVPSRFSGSGSGTDFTLTISSLQPEDFATYYCLQGSKFPLTFGQGTKLEIKR | 14.8 nM | 
6 | h38H12.8 (antibody, V domains shown) VH: EVQLVESGGGVVQPGRSLRLSCAASGFTFSNYGMYWIRQAPGKGLEWVAFISHGGGITYYRDSVKGRFTISRDNSKSTLYLQMNSLRAEDTAVYHCAALNWELGIDYWGQGTMVTVSS VL: EIVMTQSPATLSVSPGERATLSCRASEDIYSNLAWYQKKPGQSPRLLIYAANRLQDGVPARFSGSGSGTEYTLTISSLQSEDFAVYFCLQGSKFPLTFGQGTKLEIKR | 8.31 nM | 
7 | h38H12.7 (antibody, V domains shown) VH: EVQLVESGGGVVQPGRSLRLSCAASGFTFSNYGMYWIRQAPGKGLEWVAFISHGGGITYYRDSVKGRFTISRDNSKSTLYLQMNSLRAEDTAVYHCAALNWELGIDYWGQGTMVTVSS VL: DIQMTQSPSSLSASVGDRVTITCRASEDIYSNLAWYQQKPGKAPKLLIYAANRLQDGVPSRFSGSGSGTDYTLTISSLQPEDFATYYCLQGSKFPLTFGQGTKLEIKR | 12.5 nM | 
8 | 14G1 rat mAb (antibody, V domains shown) VH: EVQLQQSGAELAKPGSSVKISCKASGYTFTNYDISWIKQTNGQGLEYLGYINTGSGGIYSNEKFKGKATLTVDKSSNTAFMQLSSLTPEDTAVYYCVREGNNFDHWGQGVKVTVSS VL: DTVMTQSPASMSTSVGERVTVNCKASQSVGTIVAWFQQKPGQSPKRLIYLATYRHTGVPDRFIGSGFGRDFTLTISNVEAEDLAVYYCLQYGSRPFTFGAGTKLEIKR |  | EC50 [1]: > 50.9 nM
9 | 14A11 rat mAb (antibody, V domains shown) VH: EVQLQQSGPELAKPGSSVKISCKASGYTFTNSYISWIKQTTGQGLEYVGYINTGSGGADYNEKFKGKATLTVDKSSRTAFMQLSSLTPGDSAVYYCAKSILLGSTCYFDYWGQGVLVTVSS VL: NTVLTQSPALAVSLGQRVTISCKASRSVSSPMYSYIYWYQQKPGQQPKLLIYRASTLASGVPARFSGSGSGTDFTLNIDPVEADDIATYFCQQSWSDPFTFGSGTKLEIKR |  | EC50 [2]: > 50.9 nM
10 | h1A11.A12 (antibody, V domains shown) VH: EVQLVESGGGLVQPGGSLRLSCAASGFTFSNFPMAWVRQAPGKGLEWVATISSSDGTTYYRDSVKGRFTISRDNAKNSLYLQMNSLRAEDTAVYYCARGYYNSPFAYWGQGTLVTVSS VL: DIQMTQSPSSLSASVGDRVTITCRASQDIYYNLAWYQQKPGKSPKLLIFDTSSLADGVPSRFSGSGSGTDFTLTISSLQPEDFATYFCQQYDWYPPTFGQGTKLEIK |  | Kd (mouse DLL4 ECD): 16 nM
11 | h1A11.A7 (antibody, V domains shown) VH: EVQLVESGGGLVQPGGSLRLSCAASGFTFSNFPMAWVRQAPGKGLEWVATISSSDGTTYYRDSVKGRFTISRDNAKNSLYLQMNSLRAEDTAVYYCARGYYNSPFAYWGQGTLVTVSS VL: DIQMTQSPSSLSASVGDRVTITCRASQDIYINLAWYQQKPGKAPKLLIFDTSDLADGVPSRFSGSGSGTDFTLTISSLQPEDFATYYCQQYDYYPPTFGQGTKLEIK |  | Kd (mouse DLL4 ECD): 13 nM

Continued, in another order:

Row | IC50 (human DLL4 ECD) | Binder | also measured
12 | 5.84 nM | h38H12.14 (antibody, V domains shown) VH: EVQLVESGGGLVQPGGSLRLSCAASGFTFSNYGMYWIRQAPGKGLEWVAFISHGGGITYYRDSVKGRFTISRDNSKSTLYLQMNSLRAEDTAVYHCAALNWELGIDYWGQGTMVTVSS VL: DIQMTQSPSSLSASVGDRVTITCRASEDIYSNLAWYQKKPGKSPKLLIYAANRLQDGVPSRFSGSGSGTDYTLTISSLQPEDFATYFCLQGSKFPLTFGQGTKLEIKR | 
13 | 3.23 nM | h38H12.12 (antibody, V domains shown) VH: EVQLVESGGGVVQPGRSLRLSCAASGFTFSNYGMYWVRQAPGKGLEWVAFISHGGGITYYRDSVKGRFTISRDNSKNTLYLQMNSLRAEDTAVYYCAALNWELGIDYWGQGTMVTVSS VL: EIVMTQSPATLSVSPGERATLSCRASEDIYSNLAWYQKKPGQSPRLLIYAANRLQDGVPARFSGSGSGTEYTLTISSLQSEDFAVYFCLQGSKFPLTFGQGTKLEIKR | 
14 | 5.29 nM | h38H12.13 (antibody, V domains shown) VH: EVQLVESGGGLVQPGGSLRLSCAASGFTFSNYGMYWIRQAPGKGLEWVAFISHGGGITYYRDSVKGRFTISRDNSKSTLYLQMNSLRAEDTAVYHCAALNWELGIDYWGQGTMVTVSS VL: DIQMTQSPSSLSASVGDRVTITCRASEDIYSNLAWYQQKPGKAPKLLIYAANRLQDGVPSRFSGSGSGTDFTLTISSLQPEDFATYYCLQGSKFPLTFGQGTKLEIKR | 
15 | 3.77 nM | h38H12.16 (antibody, V domains shown) VH: EVQLVESGGGLVQPGGSLRLSCAASGFTFSNYGMYWIRQAPGKGLEWVAFISHGGGITYYRDSVKGRFTISRDNSKSTLYLQMNSLRAEDTAVYHCAALNWELGIDYWGQGTMVTVSS VL: EIVMTQSPATLSVSPGERATLSCRASEDIYSNLAWYQKKPGQSPRLLIYAANRLQDGVPARFSGSGSGTEYTLTISSLQSEDFAVYFCLQGSKFPLTFGQGTKLEIKR | 
16 | 5.71 nM | h38H12.15 (antibody, V domains shown) VH: EVQLVESGGGLVQPGGSLRLSCAASGFTFSNYGMYWIRQAPGKGLEWVAFISHGGGITYYRDSVKGRFTISRDNSKSTLYLQMNSLRAEDTAVYHCAALNWELGIDYWGQGTMVTVSS VL: DIQMTQSPSSLSASVGDRVTITCRASEDIYSNLAWYQQKPGKAPKLLIYAANRLQDGVPSRFSGSGSGTDYTLTISSLQPEDFATYYCLQGSKFPLTFGQGTKLEIKR | 

Reference: US20190315855 (published 2019)
